Experimental data taken from IntAct's records for PubMed 16830178.

B1: Protein GRIP (Arabidopsis thaliana (Mouse-ear cress)), Q8S2T0 (parent)
chain: MSEDKESDVVGEEEESHVIKEDKELNDASNETLTENGDQLLQMIAELRLENDFLRSQFEGLKDEVAQGRSLQKAEQVEADSAQLKQLQEQVASLSREIDVEKQTRVAAEQALEHLREAYSEADAKSQEYSSKFSQVEQKLDQEIKERDEKYADLDAKFTRLHKRAKQRIQEIQKEKDDLDARFREVNETAERASSQHSSMQQELERTRQQANEALKAMDAERQQLRSANNKLRDTIEELRGSLQPKENKIETLQQSLLDKDQILEDLKKQLQAVEERKQIAVTELSAKHQKNLEGLEAQVVDALSERDKAAETISSLQVLLAEKESKIAEMEAAATGEAARLRAAAETLKGELAHLKSENEKEKETWEASCDALKSKLEIAESNYLQAEIEVAKMRSQLGSEMSMQTQILSTKDAELKGAREEINRLQSEFSSYKIRAHALLQKKDMELAAAKDSEQIKSLEEALKEAEKEVYLVSAERDRAQQDLQSALASLEKELEERAGALKDASEQIKSLEVKLDSTVARNQAEKQAWEEDLRVLEETWRRRCEALTAQNEASPAEGIEKELENAKLRNKRMKEEHESVRELADRLIEEKDREISRLVDEMTNLRKSMESKPVWNKSPSQVHHYGNNNTESQQQDVSNLSTSAAEHQILILARQQAQREEELAQTQRHILALQEEIEELERENRLHSQQEAVLKTELREMERKQKREGVDMTYLKNVILKLLETGEVEALLPVVGMLLQFSPEEIQKCQQAYHSSTTAATTTEATPSPASEGSGLSVFSRFSFS
partner: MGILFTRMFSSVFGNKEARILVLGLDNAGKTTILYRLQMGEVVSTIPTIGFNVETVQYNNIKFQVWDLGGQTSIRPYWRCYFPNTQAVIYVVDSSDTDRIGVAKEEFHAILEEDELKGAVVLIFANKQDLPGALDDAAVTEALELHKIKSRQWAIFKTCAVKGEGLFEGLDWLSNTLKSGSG
B2: ADP-ribosylation factor 3 (Arabidopsis thaliana (Mouse-ear cress)), P40940 (parent)
chain: B1 partner
partner: B1 chain

Variants of: B1
Details: with arf3_arath ARF3, P40940

| effect of a mutation on the interaction | Variant |
| --- | --- |
| decreasing interaction | Y717A |
| decreasing interaction | K719A |

Variants of: B2
Details: with grip_arath GRIP, Q8S2T0

| effect of a mutation on the interaction | Variant |
| --- | --- |
| decreasing interaction | MGILFTRMFSSVFGNKEARILVLGLDNAGKTTILYRLQMGEVVSTIPTIGGNVETVQYNNIKFQVWDLGGQTSIRPYWRCYFPNTQAVIYVVDSSDTDRIGVAKEEFHAILEEDELKGAVVLIFANKQDLPGALDDAAVTEALELHKIKSRQWAIFKTCAVKGEGLFEGLDWLSNTLKSGSG [F51G] |
| decreasing interaction | MGILFTRMFSSVFGNKEARILVLGLDNAGKTTILYRLQMGEVVSTIPTIGFNVETVQYNNIKFQVWDLGGQTSIRPYWRCGFPNTQAVIYVVDSSDTDRIGVAKEEFHAILEEDELKGAVVLIFANKQDLPGALDDAAVTEALELHKIKSRQWAIFKTCAVKGEGLFEGLDWLSNTLKSGSG [Y81G] |

Variants of: B2
Details: with grip_arath GRIP

| effect of a mutation on the interaction | Variant |
| --- | --- |
| disrupting interaction | MGILFTRMFSSVFGNKEARILVLGLDNAGKTTILYRLQMGEVVSTIPTIGGNVETVQYNNIKFQVWDLGGQTSIRPYWRCYFPNTQAVIYVVDSSDTDRIGVAKEEFHAILEEDELKGAVVLIFANKQDLPGALDDAAVTEALELHKIKSRQWAIFKTCAVKGEGLFEGLDWLSNTLKSGSG [F51G] |
| disrupting interaction | MGILFTRMFSSVFGNKEARILVLGLDNAGKTTILYRLQMGEVVSTIPTIGFNVETVQYNNIKFQVWDLGGQTSIRPYWRCGFPNTQAVIYVVDSSDTDRIGVAKEEFHAILEEDELKGAVVLIFANKQDLPGALDDAAVTEALELHKIKSRQWAIFKTCAVKGEGLFEGLDWLSNTLKSGSG [Y81G] |
